System: K4 kissing-loop RNA reporter
Test: apparent KD of K4 kissing-loop reporter; higher = weaker reporter binding
Conditions: Eterna round: R107
Protocol: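 RNA-MaP round R107: designed RNA switches with theophylline, tryptophan, arginine or FMN aptamers are transcribed on-chip within common flanks. They are titrated with a labelled K4 kissing-loop RNA reporter in RNA-MaP buffer (100 mM Tris pH 7.5, 80 mM KCl, 4 mM MgCl2), without ligand or with the indicated ligand. Median apparent KD per design.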

[1] = input ligand: theophylline 20 uM
[2] = input ligand: tryptophan 2.4 mM
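Also: bound reporter read as fluorescence of individual clusters on recovered sequencing chips by microscopy, with normalized cluster intensities fitted with a binding model.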

UGACAUUGCUCAGAUACCAGACUUGAGGAUCACCCAGGUGCCAAAUACGUACAAAUAAAAGUCCCUUGGCAGCUGAGCAAUGUCU [TheoBX 12]
apparent KD of K4 kissing-loop reporter (input ligand: FMN 200 uM): 72.1 nM
apparent KD of K4 kissing-loop reporter (input ligand: arginine 13.2 mM): 55.6 nM
apparent KD of K4 kissing-loop reporter (input ligand: none): 63.1 nM
apparent KD of K4 kissing-loop reporter [1]: 113 nM
apparent KD of K4 kissing-loop reporter [2]: 29.3 nM

UGACGCCUGUCGGCCGCCACUCACAGCAGCCAGUGAUGUUGGAUUGUAGCGGAGUGAUGUUUCGCGAGGACCGGGACUGCAGUUG [Same State Tryptophan B GF 13]
apparent KD of K4 kissing-loop reporter (input ligand: FMN 200 uM): 259 nM
apparent KD of K4 kissing-loop reporter (input ligand: arginine 13.2 mM): 249 nM
apparent KD of K4 kissing-loop reporter (input ligand: none): 260 nM
apparent KD of K4 kissing-loop reporter [1]: 321 nM
apparent KD of K4 kissing-loop reporter [2]: 250 nM

UGACGUUUGGGAAGGAGCGGAAUGUAAUACGGAAUGCGUGGAGAUGCAGUGAUGUUGCAGAUCCAGGUAGGUCGCCCAAGGGACG [Soanina]
apparent KD of K4 kissing-loop reporter (input ligand: FMN 200 uM): 99.5 nM
apparent KD of K4 kissing-loop reporter (input ligand: arginine 13.2 mM): 84.9 nM
apparent KD of K4 kissing-loop reporter (input ligand: none): 91.2 nM
apparent KD of K4 kissing-loop reporter [1]: 79.3 nM
apparent KD of K4 kissing-loop reporter [2]: 87.8 nM

UGACUACAGGAAUAAUAAUCUUAGUGAUGUUAGGAUAUGCUGAUAAGCAGAAGGAACUGAGAUCGAAAGAUCUCAAAAGUAGUCU [#05 K4 FMN A Exclusion]
apparent KD of K4 kissing-loop reporter (input ligand: FMN 200 uM): 445 nM
apparent KD of K4 kissing-loop reporter (input ligand: arginine 13.2 mM): 167 nM
apparent KD of K4 kissing-loop reporter (input ligand: none): 202 nM
apparent KD of K4 kissing-loop reporter [1]: 236 nM
apparent KD of K4 kissing-loop reporter [2]: 199 nM

UGACUGGACUGAAGGAGCGAGCGAGACAAAGUCUCGAAUUUUCAGUGAUGUUGAUAUAUAACUCAGGUAGGUCGCAGUCUAGUCU [ArgBS 8 #SwitchBubble #StaticStem]
apparent KD of K4 kissing-loop reporter (input ligand: FMN 200 uM): 395 nM
apparent KD of K4 kissing-loop reporter (input ligand: arginine 13.2 mM): 423 nM
apparent KD of K4 kissing-loop reporter (input ligand: none): 543 nM
apparent KD of K4 kissing-loop reporter [1]: 438 nM
apparent KD of K4 kissing-loop reporter [2]: 441 nM

UGACUGGACUGAAGGAGCGCCACGGUCAUAGACCGAAUAAGGAGUGAUGUUCCACAUAAAAGGCAGGUAGGUCGCAGUCUAGUCU [ArgBS 2 #SwitchBubble #StaticStem]
apparent KD of K4 kissing-loop reporter (input ligand: FMN 200 uM): 121 nM
apparent KD of K4 kissing-loop reporter (input ligand: arginine 13.2 mM): 113 nM
apparent KD of K4 kissing-loop reporter (input ligand: none): 107 nM
apparent KD of K4 kissing-loop reporter [1]: 98.1 nM
apparent KD of K4 kissing-loop reporter [2]: 101 nM

UGACUGGACUGAAGGAGCGCGAAACUCCUAGUGAUGUUAGGAAAACGAGACAAAGUCUCGACGCAGGUAGGUCGCAGUCUAGUCU
apparent KD of K4 kissing-loop reporter (input ligand: FMN 200 uM): 125 nM
apparent KD of K4 kissing-loop reporter (input ligand: arginine 13.2 mM): 102 nM
apparent KD of K4 kissing-loop reporter (input ligand: none): 103 nM
apparent KD of K4 kissing-loop reporter [1]: 115 nM
apparent KD of K4 kissing-loop reporter [2]: 135 nM

UGACUGGACUGAAGGAGCGCUGAACUCCUAGUGAUGUUAGGAUAACGAGACAAAGUCUCGAAGCAGGUAGGUCGCAGUCUAGUCU
apparent KD of K4 kissing-loop reporter (input ligand: FMN 200 uM): 118 nM
apparent KD of K4 kissing-loop reporter (input ligand: arginine 13.2 mM): 95.3 nM
apparent KD of K4 kissing-loop reporter (input ligand: none): 112 nM
apparent KD of K4 kissing-loop reporter [1]: 123 nM
apparent KD of K4 kissing-loop reporter [2]: 108 nM

UGACUGGACUGAAGGAGCGCUGAACUCCUAGUGAUGUUAGGAUAACGAGACAAAGUCUCGCGGCAGGUAGGUCGCAGUCUAGUCU
apparent KD of K4 kissing-loop reporter (input ligand: FMN 200 uM): 122 nM
apparent KD of K4 kissing-loop reporter (input ligand: arginine 13.2 mM): 93.3 nM
apparent KD of K4 kissing-loop reporter (input ligand: none): 109 nM
apparent KD of K4 kissing-loop reporter [1]: 99.3 nM
apparent KD of K4 kissing-loop reporter [2]: 106 nM

UGACUGGACUGAAGGAGCGCUUAACUCCUAGUGAUGUUAGGGAAACGAGACAAAGUCUCGAAGCAGGUAGGUCGCAGUCUAGUCU
apparent KD of K4 kissing-loop reporter (input ligand: FMN 200 uM): 216 nM
apparent KD of K4 kissing-loop reporter (input ligand: arginine 13.2 mM): 164 nM
apparent KD of K4 kissing-loop reporter (input ligand: none): 217 nM
apparent KD of K4 kissing-loop reporter [1]: 211 nM
apparent KD of K4 kissing-loop reporter [2]: 194 nM

UGACUGGACUGAAGGAGCGUUCAGGUAGGUCGCUAUGGAGUGAUGUUCCAUAGAAGGAGCGAACAGGUAGGUCGCAGUCUAGUCU [ArgBS 30 #DoubleAptamer #SwitchBubble]
apparent KD of K4 kissing-loop reporter (input ligand: FMN 200 uM): 181 nM
apparent KD of K4 kissing-loop reporter (input ligand: arginine 13.2 mM): 100 nM
apparent KD of K4 kissing-loop reporter (input ligand: none): 111 nM
apparent KD of K4 kissing-loop reporter [1]: 167 nM
apparent KD of K4 kissing-loop reporter [2]: 120 nM

UGACUGGACUGAAGGAGCGUUGAAGGAGCGUAAGCAGUGAUGUUGCUUACAGGUAGGUCGCAGCAGGUAGGUCGCAGUCUAGUCU [ArgBS 28 #DoubleAptamer #SwitchBubble]
apparent KD of K4 kissing-loop reporter (input ligand: FMN 200 uM): 134 nM
apparent KD of K4 kissing-loop reporter (input ligand: arginine 13.2 mM): 102 nM
apparent KD of K4 kissing-loop reporter (input ligand: none): 122 nM
apparent KD of K4 kissing-loop reporter [1]: 115 nM
apparent KD of K4 kissing-loop reporter [2]: 122 nM

UGAUAAAGCAGUGAUGUUGCAAGAAAUGAUACCAGUUAAGAAAAGAACCCUUGGCAGCAUAAAGUGCGCUCUAAUGAGUGUGCUU [theophylline a same state]
apparent KD of K4 kissing-loop reporter (input ligand: FMN 200 uM): 141 nM
apparent KD of K4 kissing-loop reporter (input ligand: arginine 13.2 mM): 183 nM
apparent KD of K4 kissing-loop reporter (input ligand: none): 156 nM
apparent KD of K4 kissing-loop reporter [1]: 231 nM
apparent KD of K4 kissing-loop reporter [2]: 126 nM

UGAUAAUGCAGUGAUGUUGCUAGAAACGAUACCAGUUAAGAAAAGAACCCUUGGCAGCGUAAAGUGCGCUCUAAUGAGUGUGCUU [#10 K4 Theophylline A Same State]
apparent KD of K4 kissing-loop reporter (input ligand: FMN 200 uM): 164 nM
apparent KD of K4 kissing-loop reporter (input ligand: arginine 13.2 mM): 195 nM
apparent KD of K4 kissing-loop reporter (input ligand: none): 194 nM
apparent KD of K4 kissing-loop reporter [1]: 212 nM
apparent KD of K4 kissing-loop reporter [2]: 132 nM

UGAUACCAGACGGCCGCCACUAGGACCGGGAGUGAUGUUCCCAAAUUAAAAUACUCGGCCGCCACUAGGACCGGGUCUGGUAUCU [TrypBX 26 #DoubleAptamer #SwitchBubble]
apparent KD of K4 kissing-loop reporter (input ligand: FMN 200 uM): 244 nM
apparent KD of K4 kissing-loop reporter (input ligand: arginine 13.2 mM): 269 nM
apparent KD of K4 kissing-loop reporter (input ligand: none): 295 nM
apparent KD of K4 kissing-loop reporter [1]: 360 nM
apparent KD of K4 kissing-loop reporter [2]: 113 nM

UGAUACCAGACGGCCGCCACUCCCGUAAGUCAAAGACUUACGAAGAGUAUCGUCCAGUGAUGUUGGAGGACCGGGUCUGGUAUCU [FiskerMod 10 - Jieux - Exclusion - Tryptophan B]
apparent KD of K4 kissing-loop reporter (input ligand: FMN 200 uM): 344 nM
apparent KD of K4 kissing-loop reporter (input ligand: arginine 13.2 mM): 298 nM
apparent KD of K4 kissing-loop reporter (input ligand: none): 338 nM
apparent KD of K4 kissing-loop reporter [1]: 320 nM
apparent KD of K4 kissing-loop reporter [2]: 729 nM

UGAUACCAGACGGCCGCCACUCCUGCAAGUCAAAGACUUGCUAAAGGAAUCGUCCAGUGAUGUUGGAGGACCGGGUCUGGUAUCU [TrypBX 18 #SwitchBubble #Palindromic #StaticStem]
apparent KD of K4 kissing-loop reporter (input ligand: FMN 200 uM): 1040 nM
apparent KD of K4 kissing-loop reporter (input ligand: arginine 13.2 mM): 745 nM
apparent KD of K4 kissing-loop reporter (input ligand: none): 1160 nM
apparent KD of K4 kissing-loop reporter [1]: 890 nM
apparent KD of K4 kissing-loop reporter [2]: 602 nM

From the supplement of paper PMC9170038
